{"source": "paper PMC5932034", "binders": {"B1": {"name": "FlhA^C−link (longer FlhA^C construct that includes the linker), P40729 328-692 (domain or fragment)", "chain": "RGREEKAPEEPQPVKMPENNSVVEATWNDVQLEDSLGMEVGYRLIPMVDFQQDGELLGRIRSIRKKFAQDMGFLPPVVHIRDNMDLQPARYRILMKGVEIGSGDAYPGRWLAINPGTAAGTLPGEKTVDPAFGLDAIWIESALKEQAQIQGFTVVEASTVVATHLNHLIGQFSAELFGRQEAQQLLDRVSQEMPKLTEDLVPGVVTLTTLHKVLQNLLAEKVPIRDMRTILETLAEHAPLQSDPHELTAVVRVALGRAITQQWFPGNEEVQVIGLDTALERLLLQALQGGGGLEPGLADRLLAQTQEALSRQEMLGAPPVLLVNHALRPLLSRFLRRSLPQLVVLSNLELSDNRHIRMTATIGGK"}}, "molecular_target": "T1, FlhA^C−link (longer FlhA^C construct that includes the linker) (Salmonella enterica serovar Typhimurium ST313), P40729", "T1 chain": "B1 chain", "experiment": "SEC-MALS; Superdex 200 10/300 GL; 50 mM NaPi pH 6.8, 0.1 M NaCl, 0.05% NaN3; samples at 0.05–0.5 mM; room temperature", "settings": "remark: other sources report otherwise", "data": [{"binder": "B1", "values": [{"measurement": "stoichiometry N", "result": 2}]}]}
